Consider 19 sequences from a protein production outcome set (Wang et al. 2014).

The nature of this data set: label from the status in PepcDB records.
Turning to “MSRNRVMSIDFQQLPHAGIRSLIPYVPGKSIEELAKEKGITDIIKLASNENPLGCSPLALSVIQTMSSHYIATYPSPWNHPLMSKLASYLKVKPEQLFLSNGSDYLFNILLNCFALHTDRHILTHDYAFSTYAIQANSLQIPINSVPIGHNWEVNITDIVNACNQQTGIIFIANPNNPTGVLIQQEEIKYLLEQIPKSTLLVLDEAYYEFAASQLTVNSLDWLEEHPNLVVTRTFSKIYGMAGLRLGYAIANPSIINILKRVQLPFIVNQVALAAAYAAIDDDDFIQSSLKMNNEGMLQLQAGFNELNIKYLPSSCNFLTFDCEEDSMALYNYLLDNGIIVRPLHAYKMNNFIRVTIGTKEQNSRFLTALKNFYL”, the protein production result is “failed”. Turning to “MSRPDDIDVRPIAEAETADWIRALNTGFLRSPEVSEREVADRSSYLVPARTLGAFDNGRCVATFRSFPQELTAVGGASVPADAISNVTVTATHRRRGLLTRMMAQDLAAAKERGDVVATLIAAEYPIYGRYGFGAATHSTEWTID”, the protein production entry is recorded as “failed”. For the sequence “MSRPSVNRSGEMEIFAKAVELGGFSAAARHYRMTPSAVSKLVLRLEERLGVRLVNRSTRKLQLTPEGHAFYERTVRILADIDEAERSASAGESPVGRVRLNVNASFGTHVLMPLVPEFRAHFPAVSLDIVMTDAVVDLMEARADVAIRAGPLKSSTLIARKLGATRMMIVAAPSYIERYGMPSSLEELKGHERLGFCYARAVDGWPLRTDGETVVLPASGAVQVSDGEGLRQLALAGAGLARLAEFTVREDVSARRLVPVLEDLNPGDLEEVHAVYLGQGGALPARVRAVLDFLARHARITPGQDAGRRRTSPIPAPA”, the protein production result is on record as “failed”.

On to “MSRQAEDLMVRTLSDASSLFGKERYKKALEKLDKAEKLAEKTKRTDILCRVLLQKGAVMNSMGKPDEGQDLYDKALDIYRTSNLNEQESSVLKHTLSNTFSELAKHFKMVDSIENAEKCYLNEIKVYEILLEKDPEDEDSNLEIARVFKAIGDLYEYFKPEKMDPETERQYYEKILDIREKAFELLPDSETYIYDLAHALGKLVDYYIIRQDYKSAIQFQERVVEVMEELIDLLANWKDLKAKSNAYDKLGSLYAEIGEEELAQEQYSKALEYYGMIFDDELWPLSVKAMLASELMERGKTLLLLKKYESAKESMDVALDFLEGVDKEEMEDSTEESLDLASVILGEGYEEESEDSGYLAELAGIFREYAKTLSDLNRNEEAEEFTAKSEKILRKLA”, for which the protein production result is recorded as “failed”. Regarding “MSRRAGHNGRPLLEVPMLLRGLTWLVLFQLLGTGLNVLLLPMLPGPIIGLVLLFGYFLARGEVGKPVNEAAGSLLRYLPLLLVPAAVGVMAYAREIAADFWAIVGALVLSLLLSFLFAGWMMQKLIDRQQRRREES”, the protein production result is “failed”. Take “MSRSDNGGEDKGLRITRREFLAAAGAGAAAFIVGAVVGSTAFPREKEVVKPGPTQTVTATATETATVTETQTQVQLVEKKYPKVKIANVSELREGQPVFKEYIGHRIVVIKLGEEAVNGVGPDKDIVAFSMLCTHMGGFLIFDGNTKTLICPLHFSQFDPSRGGQPVVGHATEYLPQVILEYDEASGDIFAVGFTALVYGRYDNLQGVKA”: the protein production entry is on record as “failed”. With “MSRSPEQDSDWMTGVGDSAAGESARVARLVRVAQHIEMHADEALTLSSLAKVAALSPSRLQKQFKAAFGVSPKAYQDAVRMRRFKQSLKDGSKVTDAIFASGFGSVSRVYGEANRSIGMPPRAYRAGGAGEVIVYAGRTTALGLMMMAATERGVCFVEFGDDEASLVGRLRSEFPKAELTASPARNAPELDAWMEALDQHISAGAPRPDLPLDMRGTAFQVKVWQFLLSIREGDVLSYSEVAARIDKPRAVRAVASACGKNRIGVLIPCHRVLRGDGGLGGYRWGLERKRALLEAERRSVTRE”, the protein production result is listed as “failed”. Take “MSRSVPDRWNMHKPMLCDSLPTASRTAAAILNLAQREDVTAEALAQLIQTDPALTGRILRFANAPAQGTRRPVASVIDAIDLVGLPAVRQFALSLSLIDAHREGRCEAFDYAAYWQKSLARAVALQSITAQASTVAPKEAFTLGLLADVGRLALATAWPEEYSECLRKADGEALIALERERFATDHDELTRMLLTDWGFPQVFIDALQLSQQDEIRDEGRTGRFARQLALAQHIADHRLAEEPRRAALSPLLRAEARRCGLGDEDLARLLADPPADWLDWTRTIGLPGDAPTGGAEPSRPPPQTDEKLHVLLADDDPIMLARLSRQLEADGHHVASRRDGETALAYALEHQPEMVITDWHMKPMNGLELCRALRESALGGNVYIVMLTASESEDALVEAFGAGIDDYVIKPPSVRVLKARIRAGQRIITLHKKLARERKEIERYSSELAAANRRLELMAHTDQLTGLPNRRYAMDRLEREWAQARTFDRPLSIMMLDLDWFKSINDSLGHDAGDQALVHAARVMRETVRTSDVVCRMGGEEFLIIIPDTAGPAAIQTAERVRSAVEQQQPAKLKLSRPLTASIGVADSTSAPSLKDLLLKADNALYQVKQNGRNGVRYAGLLEHHHHHH”: the protein production entry is listed as “not failed”. In the case of “MSRTIAETPRPAVASMSSGCIPPHHRPDTLKQRWGTPAAVCLLVTCLFAMTLLTTGCKPPRRTPPTLPDRPDMATVEQPVVPPATVDGKDLDAPQTPKERIALALRLLDDGGDGADPTQAVQLIEQDATTGYAPAQDLLARLSLEGYGTAKDPARAFALAIEAARQGLPDAQRLAGTMYTLGLGTARDLEQGMRWLREAADAGDGEAAAMVADYYRQGLGVERNDTEAFLWTHRAAERGVKRAALWLGLHYHYGVGTPADQKQAFALLRPFADEGDAEALTIIALLLHKGEGVAQDRKAALRYFEKGAAAGDPVAQLDLGVLYHQGDGVTRDMDKARGLFRQCAEGGNARCMTLYASMLEEGEGGPSDPAEALAWYMVASMAGDDDATPFLDDLRSRITAEQAAQGKVRATAIIRSLTASPAADEASRQSSGQTAGQASGHASGQTPESTSARTSAPVPSALPREAAGKRPTVLP”, the protein production result is reported as “failed”.

In the case of “MSRVKILDEETISHIAAGEVVERAASVVKELVENAVDADAQIIRIGISADKTGITKISVTDDGIGMDFDDALLAFRQHATSKISRPEDLDGITTLGFRGEALASIAAISKVTFTTKERGSPSPEAARVVIHGGELISHSAVGAPEGTSVLIDALFYNTPARRKFQKSVPTELSHVYDMVERIALSNRNISFVLLYNGKERFQTFGTGSYPDVIAAVFGSTFSKELTPVSGSFGPVKIDGWITRPGSEMKTTQTRFYLSINGRQVTSRQLQWAIREGYGTLLPKGMYPAAFLDIVLDPRDVDVNVHPTKREVRLSREREVMRCVQDAVYTSLHEERVFSTAPMPTLARETITTLPVEIVGEPVPVYAGKQEMHEARQAPLKQTEKQLRRTESADLPETDLFVPEVLGQIGDTYILAKNESGDLIVVDQHAAHERIMYDQLLARSSSAEAGQELIVPQPITLSKKETAALPDLLDVLAAAGYLLEPFGKDVWMVRSVPVVSSTLGDPDTIHAILDAALDGVGNTDEVLDRVLKTAACRAVVKGNTPLTIEQMQRLLRQLMATKSPYTCPHGRPTTIVLSKSRLAGMFLRT”, the protein production entry is “failed”. Then “MSRVPEPSVFLVVDEAKRKARERGVGLIDLSIGSTDLPPPEAPLKALAEALNDPTTYGYCLKSCTLPFLEEAARWYEGRYGVGLDPRREALALIGSQEGLAHLLLALTEPEDLLLLPEVAYPSYFGAARVASLRTFLIPLREDGLADLKAVPEGVWREAKVLLLNYPNNPTGAVADWGYFEEALGLARKHGLWLIHDNPYVDQVYEGEAPSPLALPGAKERVVELFSLSKSYNLAGFRLGFALGSEEALARLERVKGVIDFNQYAGVLRMGVEALKTPKEVVRGYARVYRERALGMAEALKGVLSLLPPRATMYLWGRLPEGVDDLEFGLRLVERGVALAPGRGFGPGGKGFVRIALVRPLEELLEAAKRIREALD”, with “not failed”. In the case of “MSSATKSSPATGGYLHYATLAPWKTLLRTRAYPGSLAGGSEATEATVAMELAEDWLVESLRLYQDFHAFDLSGATRVLEWVGEKGVFVAGYESLKKNEILHLILPLRLSVKENQGLYPERDFKVRHGGFSDRAVFDLKHVPDTRLLVTSGLPGCYIQVWQIREDNDVIEAVSTIDVQDKEESLWPRVSIFCSAAPGILHGARLSGLRTVDVESRKITYSSDTTDSESLSSLQVLDADTFAFCGTSGRLGLVDTRQKWAPLETVSPRAGSSGERWCAEVRSKGQGPGPCIASLGSDGQLCLLDPRNLRDPVSSAQCPVFKSSPDPELLRVTWAPGLDNCLAISGFDGTVQIYDVTSWDGKKTQVEALFIHKGHIFLDGNEVESAPLVTTHTWHPSKPRTLLSAASDAALHVWDWVDLQAS” it was “failed”; in that of “MSSEAVDATTLVIIPTYNELENLPLIVDRVRTATPDVHVLIVDDNSPDGTGERADKLAADDDHIFVLHREGKGGLCAAYMAGFQWGLERDYQVLCEMDADGSHAPEQLHLLLAEITNGADLVIGSRYVPGGRVVNWPKNRWLLSKGGNVYISVALGAGLTDMTAGYRAFRREVLEALPLDELSNAGYIFQVEIAYRAVEAGFDVREVPITFTEREIGESKLDGSFVKDSLLEVTKWGLKHRGGQAKELSKEMVGLLNYEWKHFKKRNTWLLEHHHHHH”, “failed”. Turning to “MSSEHSANGGPASAYGKPTFARASTPLPIQSAHMASDPIQITPSLTIPPSELVERFVRASGAGGQNVNKVSTAVELRFDVAGSPSLPEPLRARLLSRRDRRMTAEGVLVIDAQRFRTQDRNRDDARERLAEIISACLSVPKRRVATKPSHGAKLRRLDAKRERSHIKRGRSASHWE”, the protein production result is “failed”. Turning to “MSSERVLSNARVVSAERVFVGSVLLRDGLIAAVDEGRSHLAGAEDLGGDYLLPGLVELHTDNLEKHMTPRPGVDWPSASAVLAHDAQIVSAGITTVFDALSIGDVNPKGKRMQQLPKMLEAIGEAAASGDARADHRLHLRCEVSHPQTLEVFRELVEHPLVQLVSVMDHAPGQRQFARLEKYREYYQGKYHLSDAEMDAFIVEQVANSERYSDAARAAIVDVCQGRGLSVASHDDATLAHVRESAGYGMAIAEFPTTVEAARASHEHGLQVLMGAPNVVRGGSHSGNVAAAQLAGIGVLDILSSDYYPASLLHAALLLAGEHSEYDAIRYDLPRAVAMVSRTPALAAGLTDRGEIRVGLRADLLQARALGNNQPVVRQVWRGGQRVF”, the protein production result is “failed”.

As for “MSSFLRPAVSGQDPFTTGNYRAISSHLAITPPVSVVIPAMNEAENLPYVFKSLPDWIHEVVLVDGNSTDGTVEVARELWPDVKVVEQRGKGKGDALITGFEACTGDIIVMVDADGSADGQEIVSYVSALVSGADFAKGSRFANGGGTSDMTPIRKLGNRVLCAAVNAKFGARYTDLCYGYNAFWRHCLDQIDLDCTGFEVETLMNIRVVKAGLKVQEIPSHEYLRIHGASNLRAVRDGLRVLKVILKERSNRRALRSRPHAMQLNSGQGEVSLEHHHHHH”, the protein production entry is reported as “not failed”. Then “MSSGKVIVYGGKGALGSAILEFFKKNGYTVLNIDLSANDQADSNILVDGNKNWTEQEQSILEQTASSLQGSQVDGVFCVAGGWAGGSASSKDFVKNADLMIKQSVWSSAIAAKLATTHLKPGGLLQLTGAAAAMGPTPSMIGYGMAKAAVHHLTSSLAAKDSGLPDNSAVLTIMPVTLDTPMNRKWMPNADHSSWTPLSFISEHLLKWTTETSSRPSSGALLKITTENGTSTITPQ”, with “not failed”; and “MSSHPPIRSYVLRQGYFSNAQRHAYESLLPRYGIPLTEEPVDLDSIFGRTAPGILEIGSGMGETTAEIARQHPEKDFIAIEVHAPGIGSLLGQIEKHRLTNLRIIPHDAKLVLQQMFTSESLDGIHIFFPDPWPKARHHKRRLIQPDFVSLLCDRLKPGGYLHIATDWEDYATHILHVLRSEERFVNTAVDYAARPAYRPLTKFEQRGMKLGHTIRDIIFTRTALEHHHHHH”, with “failed”.

As for “MSSHPYVTQQNTPLADDTTLMSTTDLQSYITHANDTFVQVSGYTLQELQGQPHNMVRHPDMPKAAFADMWFTLKKGEPWSGIVKNRRKNGDHYWVRANAVPMVREGKISGYMSIRTRATDEE”, the protein production result is given as “failed”.
